Data taken from patent US20180127503A1 (EUREKA THERAPEUTICS, published 2018).

What was measured:
[1] = biological target: T1, human ROR2 expressed on the cell surface (human, UniProt Q01974 34-943); test: flow cytometry, HTB26 (MDA-MB-231) cells (breast CA); set-up: unit not given here
T1 construct: Endogenous ROR2 of human tumour cell lines; also called cell surface ROR2; ROR2 on tumour cell lines
Description: (§1) Human tumour cell lines were authenticated using short tandem repeat (STR) analysis. They were cultured in RPMI1640 (Cellgro) supplemented with 10% fetal bovine serum (FBS, Life Technologies) at 37° C. in a 5% CO₂ humidified incubator. They were harvested, washed in PBS and reacted with ROR2-IgG at 1 ug/10⁶ tumour cells on ice for an hour. #901-IgG was used as a negative control at the same dose. After washing, a secondary PE-conjugated goat anti-human IgG, Fcγ fragment specific (1:100, Jackson ImmunoResearch) was added for another 30 min incubation. Staining was analyzed on a FACSCalibur (BD Biosciences). ROR2 (full length) antibody binding towards multiple cancer cell lines were compared with Rituxan and Herceptin antibodies. The cancer cell lines were derived from breast cancer, colorectal cancer, mesothelioma, hepatocellular carcinoma, ovarian cancer, osteosarcoma, neuroblastoma, etc. ROR2 #90 antibody could recognize most of the tumour cells tested, and in some cases, the binding intensity was higher than Herceptin (see Tables 8 to 10).

[2] = biological target: T1, human ROR2 expressed on the cell surface; test: flow cytometry, H69 cells (SCLC); set-up: unit not given here
Description: as §1

[3] = biological target: T1, human ROR2 expressed on the cell surface; test: flow cytometry, H524 cells (SCLC); set-up: reference not given here
Description: as §1

[4] = biological target: T1, human ROR2 expressed on the cell surface; test: flow cytometry, HTB63 cells (melanoma); set-up: unit not given here
Description: as §1

[5] = biological target: T1, human ROR2 expressed on the cell surface; test: flow cytometry, COLO 205 cells (CRC); set-up: unit not given here
Description: as §1

[6] = biological target: T1, human ROR2 expressed on the cell surface; test: flow cytometry, M14 cells (melanoma); set-up: reference not given here
Description: as §1

[7] = biological target: T1, human ROR2 expressed on the cell surface; test: flow cytometry, IMR32 cells (neuroblastoma); set-up: unit not given here
Description: as §1

[8] = biological target: T1, human ROR2 expressed on the cell surface; test: flow cytometry, SKOV3 cells (ovarian CA); set-up: unit not given here
Description: as §1

[9] = biological target: T1, human ROR2 expressed on the cell surface; test: flow cytometry, OUMS 27 cells (chondrosarcoma); set-up: unit not given here
Description: as §1

[10] = biological target: T1, human ROR2 expressed on the cell surface; test: flow cytometry, JN DSRCT cells (DSRCT); set-up: unit not given here
Description: as §1

[11] = biological target: T1, human ROR2 expressed on the cell surface; test: flow cytometry, LAN-1 cells (neuroblastoma); set-up: unit not given here
Description: as §1

[12] = biological target: T1, human ROR2 expressed on the cell surface; test: flow cytometry, SKNMM cells (neuroblastoma); set-up: unit not given here
Description: as §1

[13] = biological target: T1, human ROR2 expressed on the cell surface; test: flow cytometry, BE(1)N cells (neuroblastoma); set-up: unit not given here
Description: as §1

[14] = biological target: T1, human ROR2 expressed on the cell surface; test: flow cytometry, CRL1427 cells (osteosarcoma); set-up: unit not given here
Description: as §1

[15] = biological target: T1, human ROR2 expressed on the cell surface; test: flow cytometry, TC32 cells (EW/PNET); set-up: unit not given here
Description: as §1

[16] = biological target: T1, human ROR2 expressed on the cell surface; test: flow cytometry, NMB7 cells (neuroblastoma); set-up: unit not given here
Description: as §1

[17] = biological target: T1, human ROR2 expressed on the cell surface; test: flow cytometry, H345 cells (SCLC); set-up: unit not given here
Description: as §1

[18] = biological target: T1, human ROR2 expressed on the cell surface; test: flow cytometry, SKHEP-1 cells (HCC); set-up: unit not given here
Description: as §1

[19] = biological target: T1, human ROR2 expressed on the cell surface; test: flow cytometry, OVCAR3 cells (ovarian CA); set-up: unit not given here
Description: as §1

[20] = biological target: T2, human ROR2 extracellular domain (ROR2 ECD recombinant protein) (human, UniProt Q01974 34-403); test: kinetic binding analysis, full length IgG1 on human ROR2-ECD
T2 construct: also called human ROR2-ECD; hROR2-ECD
T2 sequence (Q01974 34-403): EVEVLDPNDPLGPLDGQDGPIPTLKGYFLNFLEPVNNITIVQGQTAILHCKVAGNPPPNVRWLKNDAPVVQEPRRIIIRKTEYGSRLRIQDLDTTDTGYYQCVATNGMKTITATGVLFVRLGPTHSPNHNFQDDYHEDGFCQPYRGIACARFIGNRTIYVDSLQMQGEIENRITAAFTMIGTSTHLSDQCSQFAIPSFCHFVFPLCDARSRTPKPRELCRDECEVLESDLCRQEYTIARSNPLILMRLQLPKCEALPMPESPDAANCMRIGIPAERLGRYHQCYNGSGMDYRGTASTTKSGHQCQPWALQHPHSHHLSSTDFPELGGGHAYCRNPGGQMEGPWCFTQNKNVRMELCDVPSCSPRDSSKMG

[21] = biological target: T1, human ROR2 expressed on the cell surface; test: flow cytometry, SKNJB cells (neuroblastoma); set-up: unit not given here
Description: as §1

[22] = biological target: T1, human ROR2 expressed on the cell surface; test: flow cytometry, SKNSH cells (neuroblastoma); set-up: unit not given here
Description: as §1

[23] = biological target: T1, human ROR2 expressed on the cell surface; test: flow cytometry, NCI-H2052 cells (mesothelioma); set-up: reference not given here
Description: as §1

[24] = biological target: T1, human ROR2 expressed on the cell surface; test: flow cytometry, TC71 cells (EW/PNET); set-up: unit not given here
Description: as §1

[25] = biological target: T1, human ROR2 expressed on the cell surface; test: flow cytometry, OCM1 cells (melanoma); set-up: unit not given here
Description: as §1

[26] = biological target: T1, human ROR2 expressed on the cell surface; test: flow cytometry, U2OS cells (osteosarcoma); set-up: unit not given here
Description: as §1

[27] = biological target: T1, human ROR2 expressed on the cell surface; test: flow cytometry, SKBR3 cells (breast CA); set-up: reference not given here
Description: as §1

T1 sequence (Q01974 34-943 limits assumed): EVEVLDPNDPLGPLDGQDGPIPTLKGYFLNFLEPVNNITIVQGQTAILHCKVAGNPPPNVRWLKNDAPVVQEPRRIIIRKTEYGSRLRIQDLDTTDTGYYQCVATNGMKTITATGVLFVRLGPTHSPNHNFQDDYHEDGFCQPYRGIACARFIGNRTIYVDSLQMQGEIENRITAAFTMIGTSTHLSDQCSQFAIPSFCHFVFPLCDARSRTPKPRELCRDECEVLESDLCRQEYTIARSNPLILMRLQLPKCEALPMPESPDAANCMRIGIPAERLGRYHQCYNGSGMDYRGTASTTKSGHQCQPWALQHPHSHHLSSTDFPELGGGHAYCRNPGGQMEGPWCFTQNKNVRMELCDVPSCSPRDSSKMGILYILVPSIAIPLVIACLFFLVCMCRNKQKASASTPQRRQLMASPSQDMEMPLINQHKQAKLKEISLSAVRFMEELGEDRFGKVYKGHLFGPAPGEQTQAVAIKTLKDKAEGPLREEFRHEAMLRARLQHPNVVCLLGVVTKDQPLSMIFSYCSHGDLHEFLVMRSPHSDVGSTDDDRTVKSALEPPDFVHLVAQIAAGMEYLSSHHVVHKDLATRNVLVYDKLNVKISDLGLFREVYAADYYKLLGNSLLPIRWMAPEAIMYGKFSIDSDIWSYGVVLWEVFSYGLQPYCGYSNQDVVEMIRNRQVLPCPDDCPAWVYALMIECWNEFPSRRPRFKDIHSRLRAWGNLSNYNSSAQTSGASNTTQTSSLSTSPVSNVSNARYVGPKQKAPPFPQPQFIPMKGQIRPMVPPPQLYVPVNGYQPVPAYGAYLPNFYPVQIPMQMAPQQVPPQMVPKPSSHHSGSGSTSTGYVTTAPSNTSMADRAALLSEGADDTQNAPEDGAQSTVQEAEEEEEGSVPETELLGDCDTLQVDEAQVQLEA

Row | Binder | binding intensity [1] | binding intensity [2] | binding intensity [3] | binding intensity [4] | binding intensity [5] | binding intensity [6] | binding intensity [7] | binding intensity [8] | binding intensity [9] | binding intensity [10] | binding intensity [11] | binding intensity [12] | binding intensity [13] | binding intensity [14] | binding intensity [15] | binding intensity [16] | binding intensity [17] | binding intensity [18] | binding intensity [19] | Kd [20] [nM] | further results
1 | ROR2-241 full length human IgG1 antibody (antibody, V domains shown) VH: EVQLVQSGAEVKKPGASVKVSCKASGYTFTNYYIHWVRQAPGQGLEWMGIINPTSGRTRYAQRFQGRVTMTRDTSTNTVYMDLSSLRSEDTAMYYCARSGYYWGVNGDQWGQGTLVTVSS VL: SYELTQPLSVSVALGQTARITCGGNNIGSKNVHWYQQKPGQAPVLVIYRDSNRPSGIPERFSGSNSGNTATLTISRAQAGDEADYYCQVWDSSIVVFGGGTKLTVLG | 23 | 131 | 32 | 16 | 24 | 12 | 50 | 42 | 53 | 27 | 68 | 126 | 352 | 54 | 17 | 58 | 49 | 53 | 22 | 0.31 | koff [20]: 0.000538 s⁻¹; kon [20]: 1.74e+06 M⁻¹ s⁻¹; binding intensity [21]: 238; binding intensity [22]: 141; binding intensity [23]: 43; binding intensity [24]: 12; binding intensity [25]: 19; binding intensity [26]: 60; binding intensity [27]: 27
2 | ROR2-27 full length human IgG1 antibody (antibody, V domains shown, also called clone #27; clone #027 IgG1) VH: QVQLVESGAEVKKPGESLKISCKASGYSFSNYWIGWVRQMPGKGLEWMGIIYPDDSDTRYSPSFQGQVTISADKSISTAYLQWYSLKVADTAKYYCVRPRGAFDIWGQGTTVTVSS VL: QSVLTQPPSVSGAPGQRVTISCTGSSSNIGAGHAVHWYQQLPGTAPKLLIYDNANRPSGVPDRFSGSQSGTSASLAITGLQTGDEADYYCGTWDDSPSAYVFGTGTKVTVLG | 7 | 24 | 16 | 8 | 7 | 5 | 16 | 36 | 48 | 5 | 28 | 69 | 244 | 11 | 20 | 23 | 26 | 23 | 7 | 0.715 | koff [20]: 0.000608 s⁻¹; kon [20]: 851000 M⁻¹ s⁻¹; binding intensity [21]: 141; binding intensity [22]: 8; binding intensity [23]: 46; binding intensity [24]: 21; binding intensity [25]: 6; binding intensity [26]: 29; binding intensity [27]: 15

More lines, in order of falling Kd [20], values ahead:

Row | binding intensity [1] | binding intensity [2] | binding intensity [3] | binding intensity [4] | binding intensity [5] | binding intensity [6] | binding intensity [7] | binding intensity [8] | binding intensity [9] | binding intensity [10] | binding intensity [11] | binding intensity [12] | binding intensity [13] | binding intensity [14] | binding intensity [15] | binding intensity [16] | binding intensity [17] | binding intensity [18] | binding intensity [19] | Kd [20] [nM] | Binder | further results
3 | 11 | 9 | 28 | 16 | 26 | 9 | 24 | 116 | 71 | 50 | 34 | 77 | 273 | 30 | 37 | 35 | 34 | 42 | 35 | 0.164 | ROR2-23 full length human IgG1 antibody (antibody, V domains shown, The light chain of clone 023 is labelled kappa; also called clone #23; clone #023 IgG1) VH: EVQLVQSGAEVKKPGESLKISCQGSGYRFSKYWIGWVRQMPGKGLEWMGIIYPGDSDTRYSPSFQGQVTISADKSISTAYLQWSSLKASDTAMYYCARSFSSFIYDYWGQGTLVTVSS VL: ETTLTQSPGTLSVSPGERATLSCRASQSVSSNLAWYQQKRGQAPRLLIYGASTRATGIPVRFSGSGSGTEFTLTISRLEPEDFAVYYCQQYGRSPLTFGGGTKVDIKR | koff [20]: 0.000432 s⁻¹; kon [20]: 2.63e+06 M⁻¹ s⁻¹; binding intensity [21]: 182; binding intensity [22]: 170; binding intensity [23]: 65; binding intensity [24]: 46; binding intensity [25]: 10; binding intensity [26]: 52; binding intensity [27]: 48
4 | 4 | 9 | 7 | 5 | 4 | 4 | 29 | 5 | 6 | 3 | 37 | 84 | 279 | 4 | 4 | 33 | 36 | 21 | 4 | 0.063 | ROR2-240 full length human IgG1 antibody (antibody, V domains shown, also called clone #240 IgG1) VH: QITLKESGPELVKPTQTLTLTCTFSGFSLSTSGMSVSWIRQPPGKALEWLARIDWDDDKYYSTSLKTRLTISKDTSKNQVVLTMTNTDPVDTATYYCARGFYLAYGSYDSWGQGTLVTVSS VL: QSALTQPASVSGSPGQSITISCTGTSGDVGGYNYVSWYQHHPGKAPKLIIYDVNKRPSGFSDRFSGSKSGNTASLTISGLQAEDEADYYCSSYTSTSTVFGGGTKLTVLG | koff [20]: 4.45e-05 s⁻¹; kon [20]: 706000 M⁻¹ s⁻¹; binding intensity [21]: 199; binding intensity [22]: 113; binding intensity [23]: 8; binding intensity [24]: 10; binding intensity [25]: 3; binding intensity [26]: 39; binding intensity [27]: 5
